# Source: article PMC8699515, “Native llama Nanobody Library Panning Performed by Phage and Yeast Display Provides Binders Suitable for C-Reactive Protein Detection” (Biosensors, 2021)
# B1: C-reactive protein (CRP) from human pleural fluid (natural protein, UniProt P02741 19-224, looked up)
# chain: QTDMSRKAFVFPKESDTSYVSLKAPLTKPLKAFTVCLHFYTELSSTRGYSIFSYATKRQDNEILIFWSKDIGYSFTVGGSEILFEVPEVTVAPVHICTSWESASGIVEFWVDGKPRVRKSLKKGYTVGAEASIILGQEQDSFGGNFEGSQSLVGDIGNVNMWDFVLSPDEINTIYLGGPFSPNVLNWRALKYEVQGEVFTKPQLWP
# notes: C-reactive protein, human, purified from pleural fluid; source: bought: LEE Biosolutions (from human pleural fluid)
# B2: anti-CRP nanobody A12 fused to 6xHis-SpyTag (VHH)
# VHH: EVQLQASGGGLVQAGGSLGLSCAASTRAFSTYAMGWFRQVPGKEREFVAAISSGGSTVYADSVKGRFTISRDNAKNTVYLQMNNLRPEDTAVYYCAARQGIVVRSPTRMDYWGQGTQVTVSS
# notes: pET14-derived vector
# B3: anti-CRP nanobody E12 fused to 6xHis-SpyTag (VHH)
# VHH: EVQLQASGGGLVQAGGSLRLSCAASRRPSSFKVMGWYRQAPGKQRELVARITSGGSTDYADSVKGRFTISRDNAKNTVYLQMNSLEPEDTAVYYCNAYRWGRDNWGQGTQVTVSS
# notes: pET14-derived vector; In the biosensor it was held by SpyCatcher attached to the gold electrode
# B4: anti-CRP nanobody A6 fused to 6xHis-SpyTag (VHH)
# VHH: EVQLQASGGGLVRPGGSLRLSCAVSGGTLSNYAVGWFRRAPGNQRELVATFTSGGTTLYADSVKGRFTISRDNLKNTVYLQMNSLKPEDTAVYYCAAKPGRASSQATDYDAWGQGTQVTVSS
# notes: pET14-derived vector
# B5: anti-CRP nanobody H7 fused to 6xHis-SpyTag (VHH)
# VHH: EVQLQASGGGLVQAGGSLRLSCAASGRTFSSYATGWYRQAPGKERELVAAISSGGSTYYADSVKGRFTISRDNAKNTVYLQMNSLKAEDTAVYYCAGGRRVGVLIGNEYDYWGQGTLVTVSS
# notes: pET14-derived vector
# B6: anti-CRP nanobody B9 fused to 6xHis-SpyTag (VHH)
# VHH: EVQLQASGGGSVQAGGSLRLSCATSGIIFRNNIMTWYRQAPGKNRELVATITTGGSTNYSDSVKGRFTISRDNTKNTVYLQMSNLKPDDTGVYYCNARRNRFLTGSYGQGTQVTVSS
# notes: pET14-derived vector
# B7: anti-CRP nanobody C10 displayed on phage (VHH)
# VHH: EVQLQASGGGLVQAGGSLRLSCAASGRTFSNYGMGWFRQAPGKEREFVAAITSGGSTYYRDSVKGRFTISRDNAKNTVYLQMNSLKPDDTAVYYCAASRGVTAIWGSSYDYWGQRTLVTVSS
# notes: C10 gave no soluble 6xHis-SpyTag construct; source: E. coli TG1 with M13K07 helper phage, phages in culture supernatant
# B8: anti-CRP nanobody C1 displayed on phage (VHH)
# VHH: DVQLQASGGGLVQPGGSLRLSCRAPRMVFRRNVMGWFRQAPGKQRELVAYITNDGVTKYTDSVKGRFTISRDNAENTMYLQMNNLKTEDTAVYYCNVRRVLGIAGYWGQGTQVTVSS
# notes: source: E. coli TG1 with M13K07 helper phage, phages in culture supernatant
# B9: anti-CRP nanobody B9 displayed on phage (VHH)
# VHH: B6 VHH
# notes: as for B8
# B10: anti-CRP nanobody A12 displayed on phage (VHH)
# VHH: B2 VHH
# notes: as for B8
# B11: anti-CRP nanobody E12 displayed on phage (VHH)
# VHH: B3 VHH
# notes: as for B8
# B12: anti-CRP nanobody A6 displayed on phage (VHH)
# VHH: B4 VHH
# notes: as for B8
# B13: anti-CRP nanobody A10 displayed on phage (VHH)
# VHH: EVQLQASGGGLVQAGGSLRLSCVASRSILSLAVMGWYRQAPGKERELVASITSGGNTNYADVVKGRFIISRDNAKNTVNLQMNTLRPEDTAVYYCSAKSILTGPNHWRQETQVTVSS
# notes: as for B8
# Target: T1, E12 fused to mouse Fc (E12-mFc) (llama)
# T1 construct: as the VHH of m7
# Experiment: ELISA; short protocol (coating 2 h at 37 C) with CRP 1 to 10 ug/mL; 25 ug/mL E12-mFc; anti-mouse HRP, TMB; triplicate
# Conditions: both partners purified
row,Binder,binding result
1,B1,binds

# Target: B1
# Experiment: BLI; Octet K2; CRP (25 nM) in PBS immobilised on aminopropylsilane (APS) tips, blocked with 1% BSA/PBS; nanobodies 10-1200 nM in 0.1% BSA/PBS; 30 C; 1:1 model, global fit
# Conditions: both partners purified
row,Binder,Kd
1,B2,0.122 µM
2,B3,0.013 µM
3,B4,0.051 µM
4,B5,0.154 µM

# Target: T2, BSA (Bos taurus, UniProt P02769)
# T2 construct: BSA (serum albumin), used as negative control
# T2 sequence (P02769 25-607): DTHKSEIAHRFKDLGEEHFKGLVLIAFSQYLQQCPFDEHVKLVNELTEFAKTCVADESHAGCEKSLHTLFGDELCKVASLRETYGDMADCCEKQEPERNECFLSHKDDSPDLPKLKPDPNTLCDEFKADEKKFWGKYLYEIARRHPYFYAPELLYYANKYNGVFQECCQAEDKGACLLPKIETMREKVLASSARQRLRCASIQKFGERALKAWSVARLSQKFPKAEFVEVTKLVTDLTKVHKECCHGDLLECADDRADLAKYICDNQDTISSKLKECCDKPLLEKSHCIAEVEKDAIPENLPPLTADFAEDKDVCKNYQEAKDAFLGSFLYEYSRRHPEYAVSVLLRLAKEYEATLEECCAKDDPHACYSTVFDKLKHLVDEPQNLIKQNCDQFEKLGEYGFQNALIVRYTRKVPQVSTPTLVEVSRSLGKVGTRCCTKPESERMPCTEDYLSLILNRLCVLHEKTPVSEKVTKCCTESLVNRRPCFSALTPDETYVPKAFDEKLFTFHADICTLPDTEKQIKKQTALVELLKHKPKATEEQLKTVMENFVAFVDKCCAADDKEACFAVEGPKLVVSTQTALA
# Experiment: electrochemical impedance spectroscopy; gold electrode carrying E12-SpyTag held by SpyCatcher; CRP or BSA in solution; room temperature, 0.1 M KNO3 with 5 mM K3[Fe(CN)6]/K4[Fe(CN)6]; triplicate
# Conditions: both partners purified
row,Binder,binding result
1,B3,no binding (tested: 1 μg/mL)

# Target: B1
# Experiment: ELISA; CRP (0.5 ug/well) or BSA coated 2 h at 37 C; purified nanobodies 0.5 ug/well (A6, A12, B9, H7) or 0.1 ug/well (E12) in 2% BSA in PBS, 2 h at room temperature; anti-His and anti-mouse HRP, TMB
# Conditions: both partners purified
row,Binder,ELISA signal
1,B6,2.28
2,B2,0.974
3,B3,2.6
4,B4,0.231
5,B5,0.904

# Target: B1
# Experiment: ELISA; CRP (0.5 ug/well) or BSA coated overnight at 4 C; purified nanobodies 0.5 ug/well (A6, A12, B9, H7) or 0.1 ug/well (E12) in 2% BSA in PBS, 2 h at room temperature; anti-His and anti-mouse HRP, TMB
# Conditions: both partners purified
row,Binder,ELISA signal
1,B6,1.56
2,B2,1.23
3,B3,2.84
4,B4,0.476
5,B5,1.47

# Target: B1
# Experiment: ELISA; phage screening ELISA: CRP 0.25 ug/well coated overnight at 4 C on MaxiSorp, saturated with 3% BSA-PBS; phages in culture supernatant (100 uL, not normalised) 2 h at room temperature; anti-M13 HRP, TMB, absorbance at 450 nm; ratio of the CRP signal to the BSA control, triplicates
# Conditions: one partner purified
row,Binder,Screening ELISA (CRP/BSA Signal)
1,B7,14.6
2,B8,12.5
3,B9,14.6
4,B10,15.5
5,B11,13.3
6,B12,11.8
7,B13,12.3
